Measurements as given in US20080166293A1 (UAB RESEARCH FOUNDATION, published 2008).

Legend:
[1] = target: T1, human transferrin receptor (hTfR) (human, UniProt P02786 1-760); assay: synthetic peptide added to CEF+hTfR cells before HAIYPRH phage; titer of bound phage
T1 construct: whole, on cells; Always presented on CEF+hTfR cells; also called CEF+hTfR cells
Description: (§1) Binding and Competition Studies: Purified phage populations were amplified and were verified to be homogenous through DNA sequencing. Cells were prepared for binding as was described for biopanning procedures. Preparations of plaque-purified and titered phage (1×10¹¹) were incubated in serum-free Opti-MEM on either CEF or CEF+hTfR cells at 4° C. for 1 hour. The cells were washed repeatedly with Opti-MEM and bound phage were eluted with low pH buffer and subsequently titered. […] Multiple trials were completed and average titers and standard deviations determined. The titers determined on CEF+hTfR cells were divided by the titers determined on CEF cells and […] fold over control data points.

[2] = target: T1, human transferrin receptor (hTfR); assay: synthetic peptide added to CEF+hTfR cells before … phage; titer of bound phage
Description: as §1

T1 sequence (P02786 whole entry): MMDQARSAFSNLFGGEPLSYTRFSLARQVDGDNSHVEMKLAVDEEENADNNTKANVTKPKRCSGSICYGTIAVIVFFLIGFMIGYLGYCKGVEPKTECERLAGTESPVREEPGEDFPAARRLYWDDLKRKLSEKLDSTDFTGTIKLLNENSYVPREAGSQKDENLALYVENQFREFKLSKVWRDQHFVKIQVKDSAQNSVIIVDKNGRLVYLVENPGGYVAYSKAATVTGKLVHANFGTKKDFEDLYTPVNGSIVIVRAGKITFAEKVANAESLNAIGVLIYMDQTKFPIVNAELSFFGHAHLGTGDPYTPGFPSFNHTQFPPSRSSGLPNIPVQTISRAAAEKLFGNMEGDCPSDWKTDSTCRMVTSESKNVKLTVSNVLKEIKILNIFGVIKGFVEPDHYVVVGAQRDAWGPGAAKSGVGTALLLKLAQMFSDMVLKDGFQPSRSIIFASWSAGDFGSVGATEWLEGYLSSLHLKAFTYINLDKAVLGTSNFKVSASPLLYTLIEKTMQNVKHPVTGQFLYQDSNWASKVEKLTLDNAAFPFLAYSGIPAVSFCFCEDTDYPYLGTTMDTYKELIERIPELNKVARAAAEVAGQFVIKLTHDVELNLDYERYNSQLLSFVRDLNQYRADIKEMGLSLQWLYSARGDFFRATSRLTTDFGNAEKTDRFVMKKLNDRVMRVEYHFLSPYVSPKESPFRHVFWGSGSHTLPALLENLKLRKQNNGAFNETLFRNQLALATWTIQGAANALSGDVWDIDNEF

B1: HAIYPRH (Seq. ID No. 1) peptide (peptide)
peptide: HAIYPRH
notes: Synthetic peptide, HPLC purified; also called 7-mer
[1]
  binding result: binds

B2: THRPPMWSPVWP (Seq. ID No. 2) peptide (peptide)
peptide: THRPPMWSPVWP
notes: Synthetic peptide, HPLC purified; also called 12-mer
[2]
  binding result: binds
